Test results: the supplement of paper PMC12764529
± gives the half width of the 95% confidence interval.

Legend:
[1] = folding stability dG unfold from chymotrypsin proteolysis; higher = more stable
Outline: (§1)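 Only designs with AlphaFold2 dimer inter-PAE above 15 were retained; each was a mini-protein under 80 residues with no cysteine, in a PA-tagged cDNA display construct. After digestion with trypsin and chymotrypsin and sequencing, K50 was inferred by Bayesian fitting of counts, and unfolding free energy was derived per protease or combined against a sequence-predicted unfolded-state K50 and a shared folded-state K50.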

[2] = folding stability dG unfold from trypsin proteolysis; higher = more stable
Outline: as §1

[3] = folding stability dG unfold (combined trypsin and chymotrypsin); higher = more stable
Outline: as §1

| Sequence | folding stability dG unfold [1] | folding stability dG unfold [2] | folding stability dG unfold [3] |
| --- | --- | --- | --- |
| SAGGSAGGMEPLTRVTVELELPGGETRVVEGDDLEAVKERLKEELGLPDLVVKSVKTTPLPALESAGGSAGG [r6_406_JUSTAS] | 0.974 ± 0.027 kcal/mol | 0.6 ± 0.045 kcal/mol | 0.857 ± 0.077 kcal/mol |
| SAGGSAGGMIEVSYDPVKNRYIATFKFPEGEVTITLPADLSPEEKAAAIKAAAEAAAKEKGIKLSAGGSAGG [r6_679_JUSTAS] | 2 ± 0.05 kcal/mol | 1.68 ± 0.025 kcal/mol | 1.88 ± 0.058 kcal/mol |
| SAGGSAGGMIKYSEEAPDPSYRTEVEVTPVPGKVAIKTTTYRNENGVWTAEESTSVVSPEALLSSAGGSAGG [r6_778_JUSTAS] | 0.341 ± 0.095 kcal/mol | -0.703 ± 0.19 kcal/mol | 0.0979 ± 0.088 kcal/mol |
| SAGGSAGGMILIKNEDGSLYLIEVETVTVTVKVKLPEELKELLKGIKPGDTITVTVTKVRIVKLSAGGSAGG [r6_907_TrROS_Hall] | 4.58 ± 0.11 kcal/mol | 3.79 ± 0.15 kcal/mol | 4.32 ± 0.17 kcal/mol |
| SAGGSAGGMIYKFTYPKGEPPLLFTYDPSTGKVTVTEPKTGKPLGTVDLSLEEAVKAGARIEPVSAGGSAGG [r6_832_JUSTAS] | 0.96 ± 0.085 kcal/mol | 0.44 ± 0.073 kcal/mol | 0.84 ± 0.057 kcal/mol |
| SAGGSAGGMKEITITNENGETLRIKVFNKETGEEKEIEFPAGMSLEDILKKLKEEEGLEVEIEPSAGGSAGG [r6_202_TrROS_Hall] | 3.16 ± 0.071 kcal/mol | 2.27 ± 0.14 kcal/mol | 3.01 ± 0.16 kcal/mol |
| SAGGSAGGMKIEIFQNDDGIYVRIKLKPPNGPPRTMVFPFTANQIKDALKQFPNYKIEDIEVYRSAGGSAGG [r6_879_TrROS] | 2.18 ± 0.09 kcal/mol | 1.47 ± 0.12 kcal/mol | 1.9 ± 0.15 kcal/mol |
| SAGGSAGGMKIIKYDKKTKKVLIYYDEETKEWYVRNKNGKIYKFKSVEEALKKLPVKVEIVKVPSAGGSAGG [r6_752_TrROS_Hall] | 1.6 ± 0.14 kcal/mol | 1.5 ± 0.035 kcal/mol | 1.67 ± 0.089 kcal/mol |
| SAGGSAGGMKITIEKLDPEKGVYLLTVKPPGPGKTLVIELPVEKEEEALAFAKKLEELGYEVENSAGGSAGG [r6_796_TrMRF] | 1.57 ± 0.12 kcal/mol | 1.02 ± 0.02 kcal/mol | 1.34 ± 0.13 kcal/mol |
| SAGGSAGGMKLTLRIEAPREEVERLAKEFEAQGIKVTVKPRPDGRVELTLEIDLPDTDKSLFDPSAGGSAGG [r6_8_TrMRF] | 2.67 ± 0.057 kcal/mol | 2.49 ± 0.17 kcal/mol | 2.55 ± 0.12 kcal/mol |
| SAGGSAGGMKTFTIDELKKLAEELGAEIYYDKDTNTIYIRTPGKIFRITINDDGTVTIEELPPKSAGGSAGG [r6_155_TrROS_Hall] | 3.99 ± 0.083 kcal/mol | 3.05 ± 0.19 kcal/mol | 3.66 ± 0.25 kcal/mol |
| SAGGSAGGMKVTLTPVSGEKYEIEVESEEEAKEKVEKLAKKLGIPGEVKVTIEKGDKTYELTIISAGGSAGG [r6_532_JUSTAS] | 2.5 ± 0.11 kcal/mol | 2.98 ± 0.2 kcal/mol | 2.39 ± 0.42 kcal/mol |
| SAGGSAGGMKVTTEGNAAGTNTVTVSYPDGSSVTRTLAPDDVVEVPVGGEVVLTVTVTANPDLPSAGGSAGG [r6_583_JUSTAS] | 0.0101 ± 0.061 kcal/mol | -0.0728 ± 0.1 kcal/mol | -0.0541 ± 0.12 kcal/mol |
| SAGGSAGGMLLDEDGNLVVKIKLENGEEFEAKVTEIKDGKITVEVNGKKVEINAKDIELLPEDESAGGSAGG [r6_575_TrROS_Hall] | 2.27 ± 0.05 kcal/mol | 2.23 ± 0.088 kcal/mol | 2.31 ± 0.096 kcal/mol |
| SAGGSAGGMLLVRIKVRRPDGSEETIVLEFESEEELKAAIEELLPPGWEVVEIELVPLGEELPESAGGSAGG [r6_872_TrROS_Hall] | 4.402 ± 0.042 kcal/mol | 4.55 ± 0.17 kcal/mol | 4.49 ± 0.11 kcal/mol |
| SAGGSAGGMLPAEELADYLEKNPGIEIEDIEPPDPGYITVKIKFPRPDPNGEKHKVEVTIQFPVSAGGSAGG [r6_154_TrROS] | 1 ± 0.075 kcal/mol | 1.91 ± 0.24 kcal/mol | 1.4 ± 0.32 kcal/mol |
| SAGGSAGGMLSPEVLEDPEKVIEFLKKMIPGLKIVVPPDAPPEVVEAAAKLAEETGIPVEIVVGSAGGSAGG [r6_129_TrMRF] | -0.539 ± 0.48 kcal/mol | 1.06 ± 0.026 kcal/mol | 0.555 ± 0.18 kcal/mol |
| SAGGSAGGMLVFVVKKIKPGMSDEQKKALEKLVKPGDVIELSPEEIERLAKLPWIQEIKVYPLPSAGGSAGG [r6_381_TrROS_Hall] | 0.361 ± 0.34 kcal/mol | 0.641 ± 0.12 kcal/mol | 0.548 ± 0.2 kcal/mol |

| Sequence | folding stability dG unfold [1] | folding stability dG unfold [2] | folding stability dG unfold [3] |
| --- | --- | --- | --- |
| SAGGSAGGMPEYRVLDIEIETRPDMTPEEAVEEIRKALEPLGAIRVEAEPLPDGRIRVRVVLPESAGGSAGG [r6_881_TrMRF] | 2.45 ± 0.25 kcal/mol | 3.5 ± 0.28 kcal/mol | 3.27 ± 0.32 kcal/mol |
| SAGGSAGGMPVSVEIELTVPTSPDETPEEALERIREELAPLGVEEVTATPLPDGTVRFRITVPRSAGGSAGG [r6_882_JUSTAS] | 0.504 ± 0.2 kcal/mol | 1.44 ± 0.048 kcal/mol | 0.961 ± 0.13 kcal/mol |
| SAGGSAGGMRLEIVVEMSEEEARELAEALRRELEERGYRVRVEVRRLPDGRLVVRVEIEPAPEPSAGGSAGG [r6_597_TrROS_Hall] | 4.49 ± 0.093 kcal/mol | 4.47 ± 0.19 kcal/mol | 4.63 ± 0.17 kcal/mol |
| SAGGSAGGMRLVVEDFDEEEMEEVERRVREFAEEHDVEVDIYRRRRPDGRVVLVVEIRPKEDLPSAGGSAGG [r6_906_TrMRF] | 3.02 ± 0.034 kcal/mol | 2.87 ± 0.058 kcal/mol | 2.95 ± 0.052 kcal/mol |
| SAGGSAGGMTFVDLGEDKPVVIEVPPRPETGLYPVVIHPPEKPVFVEVESPEEAIEAAEKLVEGSAGGSAGG [r6_715_TrMRF] | 0.788 ± 0.045 kcal/mol | 1.42 ± 0.051 kcal/mol | 1.12 ± 0.045 kcal/mol |
| SAGGSAGGMTITLRIKITNPDGEEKEIEVELELPEELKGKTLEELAAELAKALLPPGAKVEVEPSAGGSAGG [r6_821_TrROS_Hall] | 3.15 ± 0.074 kcal/mol | 1.73 ± 0.048 kcal/mol | 2.72 ± 0.14 kcal/mol |
| SAGGSAGGMTITLTLPDGTVITITVSRPGSPTTVVSVKAERPARGGTDIPEEVAKELAEKILKESAGGSAGG [r6_235_JUSTAS] | 2.96 ± 0.11 kcal/mol | 1.51 ± 0.037 kcal/mol | 2.55 ± 0.076 kcal/mol |
| SAGGSAGGMTKTEVTVTVEKVPDGTYVVKTTKTTTTTNPDGTLTSSTTTTTKTVTPEELAAVLASAGGSAGG [r6_974_JUSTAS] | 2.86 ± 0.044 kcal/mol | 3.7 ± 0.15 kcal/mol | 3.16 ± 0.11 kcal/mol |
| SAGGSAGGMTLLIRDPETNELVEVTVEEKDGKLTLTVRNKKTGETTEIEIPLDEEPIEIVLLEPSAGGSAGG [r6_465_TrROS_Hall] | 2.61 ± 0.021 kcal/mol | 2.09 ± 0.12 kcal/mol | 2.43 ± 0.12 kcal/mol |
| SAGGSAGGMTLVLEGMSEEELEELARKLRELAEELGLKVKITVERREDGRVRLTVEIELPEELPSAGGSAGG [r6_906_TrROS_Hall] | 3.69 ± 0.23 kcal/mol | 4.36 ± 0.26 kcal/mol | 4.15 ± 0.25 kcal/mol |
| SAGGSAGGMTVDPENPVVYYPGSDGKAQTYPLSPDSSLKLPDGKVVTVTPVPEGSVSVSVSPVESAGGSAGG [r6_296_JUSTAS] | 1.249 ± 0.011 kcal/mol | 0.571 ± 0.03 kcal/mol | 1.02 ± 0.036 kcal/mol |
| SAGGSAGGMTVPITLPLDEYSPEEVEAKIKAIREEIEKKNPDKKISINVTLVPQPPEPTPENLRSAGGSAGG [r6_729_JUSTAS] | 0.517 ± 0.023 kcal/mol | -0.745 ± 0.14 kcal/mol | 0.299 ± 0.07 kcal/mol |
| SAGGSAGGMTVTFTLPATAPENALENVTATVTYNGKTYLVKITATPVPDGPFVVVTAELVEYDPSAGGSAGG [r6_415_TrMRF] | 3.68 ± 0.14 kcal/mol | 3.02 ± 0.083 kcal/mol | 3.34 ± 0.17 kcal/mol |
| SAGGSAGGMVERPITLRVRVKTPEEVKKLVEELLKPTDAKADVVEEELEDGTVLVTLTIYVPEESAGGSAGG [r6_719_TrMRF] | 1.58 ± 0.038 kcal/mol | 1.67 ± 0.019 kcal/mol | 1.62 ± 0.042 kcal/mol |
| SAGGSAGGMVIEFPKEKVEEVKKELLDAGKPDWVIVTDPNDPDIIKIMPKSLAEEKGWKYTPLLSAGGSAGG [r6_710_JUSTAS] | 2.06 ± 0.043 kcal/mol | 2.33 ± 0.073 kcal/mol | 2.09 ± 0.16 kcal/mol |
| SAGGSAGGMVIHEIEVESPDPEKAEEEAKARAEEIRKALEEEEGGIPGEVKFVPTPEEDPLLLLSAGGSAGG [r6_23_JUSTAS] | 0.834 ± 0.075 kcal/mol | 1.99 ± 0.13 kcal/mol | 1.43 ± 0.13 kcal/mol |
| SAGGSAGGMVIKLPLPNDLYAEIPVYSNSDGIVTARIVLYDPSTEEKVEKPFELPFEELLDLLSSAGGSAGG [r6_858_TrMRF] | 0.899 ± 0.054 kcal/mol | 0.328 ± 0.027 kcal/mol | 0.712 ± 0.081 kcal/mol |
| SAGGSAGGMVKVLVNPDGGATFIFNKDGSTSTIPVPYTTLEDVKAAVEALAKEYGIEVEEIVPASAGGSAGG [r6_254_JUSTAS] | 1.38 ± 0.12 kcal/mol | 0.395 ± 0.085 kcal/mol | 0.982 ± 0.15 kcal/mol |
